Test results from the nanobody polyreactivity screen of Harvey et al. (2022).

test: yeast display, Sf9 membrane polyspecificity reagent, FACS + sequencing; frameworks hold sequencing errors
Outline: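 Galactose-induced (36–48 hours) yeast carrying a synthetic nanobody display library were exposed to 10% biotinylated, detergent-solubilized Sf9 membrane reagent at 4 °C for 1 hour. FACS followed streptavidin microbead enrichment, using low and high (top ~1%) gates for expression (anti-HA) and reagent binding (streptavidin). Colony PCR, MiSeq 2 × 250 sequencing and CDR-length filtering followed. Labels for polyreactivity reflect the gate of origin.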

Sequence	polyreactivity (PSR sort gate)
QVQLVESGGGLVQAGGSLRLSCAASGRIFWQYAMGWYRQAPGKERELVAGITYRGGSTYYADSVKGRFTISRDNAKQTVYLLMNSLKPEDTAVYYCAADTYLSSQYSDRYGYDYWGQGTQVTVSS	high polyreactivity
QVQLVESWGGLVQAGGSLRLSCADSGSTFNVNAMGWYSQAPGKESELVATITESGGRTYYADSVKGRFTISRDYAKNNVYLQMNSLKPEDTAVYYCARGDAWTFDYEPYDYWGQGTQVTVSS	low polyreactivity
QVQLVESGVGIVQAGGSLRLSCAASGITFWRYAMRWYRQARGKERELVAAINSGGGTKYADSVQGRFTISRDNAKNTDYLQMNSLKPEDTAVYYCAAVSRYGWYDYCGQGTQVTVSS	high polyreactivity
QVQLVESGGGLVQAGGSLRLSCAASGSTFSYYAMGWYRQAPGKEMELVAAIRSGGSTYYADSVKGRFTISRDNAKNTVYLQMNSLKPEDTAVYYCNADYIRASTLKYGTIYYWHYDYWGQGTQVTVSS	high polyreactivity
QVQLVESGGGLVQAGGSLRLSCAASGSIFTGYAMGWYRPAPGKERELVAAITSGGGTYYADSVKGRFTISRDNAKNTVSLQMNSLKPEDTAVYYCATTPGWYKVSRRYGYWGQGTQVTVSS	high polyreactivity
QVQLVESGGGLVQAGGSLRLICAASGYTFDYNAMGWYRQAPGKEREFVAAIDWSGGNTYYADSVKGRFTISRDNAKNTVYLQMNSLKPEDTAVYYCNTVTEAVTRRYDYWGQGTQVTVSS	low polyreactivity
QVQLVESGGGLVQAGGSLRLSCAASGITFLHYAMGWYRQAPGKERELVARITYSGSSTYYADSVKGRFTISRDNAKNTVYLQMNSVKPEDTAVYYCNARASWGRWSRTGTPRYDYWGQGTQVTVSS	high polyreactivity
QVQLVESGGGLVQEGGSLRVSCAASGIIFSSYVMGWYRQAPGKERELVAAISKSGARTSYADSVKGRFTISRDNAKNTVYLQMNSLKPEDTAVYYCAATFRLERPTSKHPRYDYWGQGTQVTVST	low polyreactivity
QVQLVESGGGLVQAGGSLRLSCAASGLTCSYYAMGWYRQAPGQERELVAAISITGSTNYADSVKGRFTISRDNAKNTVYLQMNSLKPEDTAVYYCAARVRSGTGVGFDYWGQGTQVTVSS	high polyreactivity
QVQLVESGGGLVQAGGSLRLSFAASGSIFSTYAMVWYRQAPGKERELVAAISTRGGRTYYADSLKGRFTLSRDNAKNTVYLQMNSLKPEDTAVYYCAADRYKTIGQWYYYWGQGTQVTVSS	high polyreactivity
QVQLVESGGGLVQAGGSLRLSCAASGRTFKYNAMGWYRQAPGNERELVAAISRSGGSTYYADSVKGRFTISRDNAKNTVYLQMNSLKPEDTAVYYCNAEYLWIRHIAEDYWGQGTQVTVSS	low polyreactivity
QVQLVESGGGLLQAGGSLRLSCAASGFTFHKNAMGWYRQAPGKERELVAAISRSGGRTYYADSVKGRFTISRDNAKNTVYLQMNSLKPEDTAVYYCNATPLLWAGYDYWGQGTQVTVSS	high polyreactivity
QVQLVESGGGLVQAGGSLRLSCAASGSIFSLYAMGWYRQAPGKASELVASITSSGGRTYYADSVKGRFTITRDTAKNTVYLQMNSLKPEDTAVYYCNNQPSWVGQRVHRFDYWGQGTQVTVSS	low polyreactivity
QVQLVESGGGLVQAGGSLRLICAASGRTIWSNAMGRYRHAPGKEWEFVAGISQDGTSRYYADSVKGRFTISRDNAKNTVYLQMNSLKPEDTAVYYCAARSSFRRRSGPTPYGFDYWGQGTQVTVSS	high polyreactivity
QVQLHQSGGGLVQAGGTLRLSCAPSGNISVTYNMGWYRQAPGKEREFVAGNSTGATTNYADSVTGRFTISRDNAKNSVYLQMNSLKPEDTAVYYCAAHIYRQDHFYYWGQGTQVTVSS	low polyreactivity
QVQLVESGGGIVQAGGSLRLSCAASGSIFGFYALGWYRQAPGKERELVAAISNSAGSTFYADSVKGRFTISRDNAKNTVYLQMNSLKPEDTAVYYCAAEGEFSDWQHQYVVYWYDYWGQGTQVTVSS	high polyreactivity
QVQLVESGGGLVQAGGSLRLSCAPSGRTFYWYTMGWYRQAPGKERELVAAISSSDGSTYYADSVKGRFTISRDNAKNTVYLQMNSLKPEDTAVYYCAADLYYYRYWYRFNYWGQGTQVTVSS	high polyreactivity
QVQLVESGGGLVQAGGSLRLSCAASGIILAHYAMGWYRQAPGKERELVAGISRSGTRTYYADSVKGRFTISRDNAKNTVYLQMNSLKPEDTAVYYCNKDAYTYWYFEMGYWGQGTQVTVSS	high polyreactivity
QVQLGESGGGLVQAGGSVRLSCAASGRTFDFYALGWYRQAPGKERELVAAISSRGGSTYYADSVKGRFTISRDNAKNTVYLQMNSLKPEDTAVYYGAKDLGYRGRYNYWGQGTQVTVSS	low polyreactivity
QVQLVESGGGLVQAGGSLRLSCAASGITFYKYAKGWYRQAPGKERELVAAISRSGTTTYYADSVKGRFTISRDNAKNTVYLQMNSLKPEDTAVYYCNTVNWLTLNDRYYYWGQGTQVTVSS	high polyreactivity
QVQLVESGGGLVQAGGSLRLICAASGYTFRGNAMGRYRPAPGKERELVAAISGSGTRTYYADSVKGRFTISRDNAKNTVYLQMNSLKPEDTAVYYCNAKSLYHYHSADFDYWGQGTQVTVSS	high polyreactivity
QVQLVESGGGLVQAGGSLRLSCAASGSIFHPYAMGWSRQAPGKERELVASISKRGGSTYYADSVKGRFTISRDNAKNTVYLQMNSLKPEDTAVYYCAKLYTIGYDYWGQGTQVTVSS	low polyreactivity

Sequence	polyreactivity (PSR sort gate)
QVQRVESRVSLVQEGGSLRLSCASSGLIYYRYTMGCYINAPVKEREVFAAISSGGRTYYADSVKGRFTISRDNAKNTVYLQMNSLKPEDTAVYYCATRVYSVHAPSAVPIGGYYWGQGTQVTVSS	high polyreactivity
QVQLVESGGALVQAGGSLRLSCAASGGTFFSNAMGWYRQAPGKERELVAAISNDDGDTYYADSVKGRFTISRDNAKNTVYLQMNSLKPEDTAVYYCAVDYSYLHRTTFEYWGQGTQVTVSS	low polyreactivity
QVQLVESGGGLVQAGGRLRLSCAGSGSTSYGYAMGWYRQAPGKERELVAAITSGGRTYYADSVKGRFTISRDNAKNTVYFQMNSLKPEDTAVYYCAAVRALRKVRDYYYWGQGTQVTVSS	high polyreactivity
QVQLVESWGGLVQAGCSLRLRCAASGRIFGPYAMGWYRQARGQERELVAAISRSGGSTYYADSVKGRFTISRDNAKNTVYLQMKSLNPEDTAVYYCNARFVIYSRVDYWGQGTQVTVSS	low polyreactivity
QVQLVESGGGLVQAGGSLRLSCAASGSTFFFYAMGWYRQAPGKERELVAAISSGGTTDYADSVKGRFTISRDNAKNTVYLQMNSLKPEDTAVYYCAATYVYWTWGYDYWGQGTQVTVSS	low polyreactivity
QVQLVESVGGLVQAGGSLRLSCAASGSTFPVYVMGWYRQAPGKERELVAAITRIGGSTYYADSVKGRFTISRDNAKNTVYLQMNSLKPEDTAVYYCAAGGTARDDSWGQGTQVTVSS	low polyreactivity
QFQLVESGGGLVQAGGSLRLSCAASGSIFEPYAMGWYRQAPGKETELVATAITYSGGSTYYADSVKGRFTISRDNAKNTVYLQMNSLKPEDTAVYYCAADDWGDGVYKLDYWGQGTQVTVSS	low polyreactivity
QVQLVESGGGLVQAGGSLRLSCAASGRIFQWNTMGWYRQAPGKEREFVAAISGSGVSTYYADSVKGRFTISRDNAKNTVYLQMNSLKPEDTAVYYCATTYPAYGRRGYDYWGQGTQVNVSS	high polyreactivity
QVQLVESGGGLVQAGGSLRLSCAASGRTFPYNAMGWYRQAPGKEMELVAAITKSAGRTYYAYSVKGRFTISRDNAKNTVYLQMNSLKPEDTAVYYCNTVTVAYGYTRLYAQYYYWGQGTQVTVSS	high polyreactivity
QVQLVESGGGLVQAGGSLRLSCAASGRIFTKYAMGWYRQAPGKERELVAAISWSGGRTYYADSVKGRFTISRDNAKNTVYLQMNSLKPEDTAVYYCAAESYKTATLGEDYWGQGTQVTVSS	high polyreactivity
QVQLVESGGGLVQAGGSLRLSCAASGRTFFLYAMGWYRQAPGKERELVAAITDGGSITYYADSVKGRFTISRDNAKNTVYLQMNSLKPEDTAVYYCAAEYWHVYDGDYWGYDYWGQGTQVTVSS	high polyreactivity
QVQLVESGGGLVQAGGSLLLSCAASGSTFDWYVMGWYRPAPGKERELVAAINQGSGSTYYADSVKGRFTISRDNAKNTVYLQMNSLKPEDTAVYYCAADRYGAGYLYWPYDYWGQGTQVTVSS	low polyreactivity
QDQLVESGGGLVQAGGSLRLSCAASGSIFGYNDMGWYRQAPGKERELVATITWGGGRTRYADSVKGRFTSSRDNAKNTVYLHMNSLKPEVTAVYYCAADVLRISTLLFRGPGFDSWGQGTQVTVSS	low polyreactivity
QVQLVESGGGLVQAGGSLRLSCAASGRIIYRYAMGWYRQAPGKERELVATITWSTTSTYHADSVKGRFTISRDNAKNTVYLQMNSLKPEDTAVYYCAASIIPGFRRDPFGYWGQGTQVTVSS	low polyreactivity
QVHLVESGGGLVQAGGSLRLSCAASGSIRVEYAMGWNRQAPGKERELVATITDSGNTNYADSVKGRFTISRDNAKNTVYLQMNSLKPEDTAVYYCAADAYPYYWLDQAFGYDYWGQGTQVTVSS	low polyreactivity
QVQLVESGGGLVQAGGSLRLSCAASGLIFRRYVMGWYRQAPGKERELVAAITSRGTRTYYADSVKGRFTISRDNAKNTVYLQMNSLKPEDTAVYYCNAQIYTYRTGRGYSRMDYWGQGTQVTVSS	high polyreactivity
QVQLVESGGGLVQAGGSLRLSCAASGRIFGGNVRGWYRQAPGKERELVAGISFSGGSTYYADSVKGRFTISRDNAKNTVYLQMNSLKPEDTAHYYCAASTYQPGALPFDYWGQGTQVTVSS	low polyreactivity
QVQLVESGGGLVQAGGSLRLSCAASGSTLTRNDMGWYRQAPGKERELVAAITFSGSDTYYADSVKGRFTISRDNANNTVYLQMNSLKPEDTAVYYCAAEYGGYEYDQWGQGTQVTVSS	low polyreactivity
QVQLEESGGGLVQAGGSLRLSCAASGSTFDTYAMGWYRPAPGKERELVAGITRRGGRTYYADSVKGRFTISRDTAKNTVYLQKYSLKPEDTAVYYCNAVPQRPVGKRDHWGQGTQVTVSS	high polyreactivity
QVQLVESGGGLVQAGGSLRLSCAASGSNFSHYAMGWYRQAPGKESELVAAISSGDSTNYADSVKGRFTISRDNAKNTVYLQMSSVKPEDTAVYYCAKTRRRLLTRYDYWGQGTQVSVSS	low polyreactivity
QVQLVESGGGLVQAGGSLRLSCAASGSTFELYAMGWYRQAPGKERELVASITGDSTNYADSVKGRFTISRDNAKNTVYLQMNSLKPEDTAVYYCAKPYYDGRTHFDSWGQGTQVTVSS	low polyreactivity
